3 substances from paper PMC13365592 can be followed below.

Holding throughout (assay): cryo-EM structure
Experiment [1] deals with MEL_213b (melbournevirus).
The target of a further experiment is MEL_256 (melbournevirus).
Experiment [2] concerns the target major capsid protein MEL_305 (melbournevirus).

MEL_213b (natural protein): the stoichiometry N (in general, the number of molecules, sites or subunits per partner or assembly) in experiment [1] is 2.

In the experiment with MEL_256 (melbournevirus), MEL_256 (natural protein) displayed a stoichiometry N of 5.

In experiment [2], “major capsid protein MEL_305 (natural protein)” registered a stoichiometry N of 3.
